Laboratory results published in PMC12140367, “Discovery, Herbicidal Activity and Biosynthesis of a Novel Natural Tetramic Acid from Alternaria Species” (Advanced Science, 2025).

How the values were obtained:
Format in all cases: biochemical, Alternaria alternata
[1] = tested on: CCC(O)(CC(=O)O)C(=O)O; assay: UPLC-MS quantification of 3EMA formed; conditions: 250 mM potassium phosphate pH 7.0, 30 °C
[2] = tested on: CCC(=O)C(=O)O; assay: UPLC-MS quantification of 2EMA formed; conditions: 1 mM acetyl-CoA, 10 mM MgCl2, potassium phosphate pH 7.5, 30 °C
[3] = tested on: CCC(C(=O)O)C(O)C(=O)O; assay: UPLC-MS quantification of OVA formed; conditions: 1 mM NAD+, 5 mM MnCl2, 1 mM DTT, MOPS-KCl pH 7.5, 30 °C

Which Km [1] does the source give for IPMDH (Alternaria alternata) here?
The Km was 786.26 µM.

IPMS (Alternaria alternata) was tested. Which Km [2] did it give?
Its Km is 164.36 µM.

Which Km [3] does the source give for ISMD (Alternaria alternata) here?
Its Km is 87.20 µM.
